This note sets out measurements from patent US20220227882A1 (TRUSTEES OF TUFTS COLLEGE, published 2022).

In test [1] the target is T1, R431A (Homo sapiens, UniProt P78325).
T1 construct: expressed on HEK293 cells; also called human ADAM8 point mutant R431A
T1 sequence (ADAM8, looked up): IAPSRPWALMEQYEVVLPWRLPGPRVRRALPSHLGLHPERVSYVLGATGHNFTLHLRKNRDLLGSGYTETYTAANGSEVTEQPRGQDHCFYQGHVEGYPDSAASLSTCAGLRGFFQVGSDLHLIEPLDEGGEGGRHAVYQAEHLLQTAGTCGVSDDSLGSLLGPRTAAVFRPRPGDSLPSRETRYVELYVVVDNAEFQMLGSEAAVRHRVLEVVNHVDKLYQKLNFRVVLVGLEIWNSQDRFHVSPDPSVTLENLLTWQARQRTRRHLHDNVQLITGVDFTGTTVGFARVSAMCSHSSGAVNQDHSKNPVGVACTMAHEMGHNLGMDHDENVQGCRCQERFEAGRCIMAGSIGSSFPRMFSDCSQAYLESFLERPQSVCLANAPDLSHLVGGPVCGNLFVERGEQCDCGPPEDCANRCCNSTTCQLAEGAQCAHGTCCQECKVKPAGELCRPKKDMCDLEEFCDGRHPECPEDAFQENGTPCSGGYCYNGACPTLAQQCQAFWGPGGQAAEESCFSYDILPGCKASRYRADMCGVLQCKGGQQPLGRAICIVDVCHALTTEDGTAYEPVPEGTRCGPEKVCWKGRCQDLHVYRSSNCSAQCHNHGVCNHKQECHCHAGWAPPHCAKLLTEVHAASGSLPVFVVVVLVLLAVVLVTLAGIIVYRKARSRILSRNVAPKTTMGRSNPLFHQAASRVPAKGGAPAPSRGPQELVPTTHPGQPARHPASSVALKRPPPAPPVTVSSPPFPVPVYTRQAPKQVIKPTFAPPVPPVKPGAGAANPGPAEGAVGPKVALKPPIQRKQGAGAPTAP
The experiment in a line: high-throughput flow cytometry, HEK293 cells with mutant ADAM8, high stringency; range in parentheses; dotted box. How it is done: (§1) A variety of experimental parameters were optimized for high-throughput flow cytometry including blocking buffer, and primary and secondary antibody concentrations, to identify the optimal conditions for screening. Through these studies ADP2 and ADP13 were determined to be high affinity binding antibodies.
(§2) Thus, for these studies antigen-binding fragments (Fabs) of ADP2 and ADP13, which bind with lower affinity than the full antibody, were generated. In addition, higher binding stringency conditions were tested, such as increased pH, salinity, and temperature, and/or increased washing, to weaken binding sufficiently to allow identification of critical binding residues in flow cytometry. The final experimental flow cytometry conditions were: primary antibody incubation with ADP2 Fab (0.50 μg/ml), ADP13 Fab (5.00 μg/ml) and Control Ab (0.16 μg/ml) for 60 minutes in flow cytometry buffer containing 10% goat serum in PBS (Ca²⁺ and Mg²⁺ free). […] Samples were washed three times after primary antibody incubation and twice after secondary antibody incubation with PBS (Ca²⁺ and Mg′ free). Next, HEK293 cells expressing WT or mutated ADAM8 proteins or EV DNA were incubated with ADP2 or ADP13 Fabs or Control Ab at their optimal concentrations. Fab binding was detected using Alexa Fluor 488-conjugated secondary antibodies and mean cellular fluorescence determined using the Intellicyt iQue flow cytometry platform. […] This counter-screen strategy facilitates the exclusion of mutants that are locally misfolded or that have an expression defect. Binding of each test Fab to each mutant clone in the alanine scanning library was determined, in duplicate, by high-throughput flow cytometry.
A general note: Flow cytometry measures light scatter and fluorescence of single cells or particles in a stream.

The target in test [2] is T2, E444A (Homo sapiens, UniProt P78325).
T2 construct: expressed on HEK293 cells; also called human ADAM8 point mutant E444A
T2 sequence (ADAM8, looked up): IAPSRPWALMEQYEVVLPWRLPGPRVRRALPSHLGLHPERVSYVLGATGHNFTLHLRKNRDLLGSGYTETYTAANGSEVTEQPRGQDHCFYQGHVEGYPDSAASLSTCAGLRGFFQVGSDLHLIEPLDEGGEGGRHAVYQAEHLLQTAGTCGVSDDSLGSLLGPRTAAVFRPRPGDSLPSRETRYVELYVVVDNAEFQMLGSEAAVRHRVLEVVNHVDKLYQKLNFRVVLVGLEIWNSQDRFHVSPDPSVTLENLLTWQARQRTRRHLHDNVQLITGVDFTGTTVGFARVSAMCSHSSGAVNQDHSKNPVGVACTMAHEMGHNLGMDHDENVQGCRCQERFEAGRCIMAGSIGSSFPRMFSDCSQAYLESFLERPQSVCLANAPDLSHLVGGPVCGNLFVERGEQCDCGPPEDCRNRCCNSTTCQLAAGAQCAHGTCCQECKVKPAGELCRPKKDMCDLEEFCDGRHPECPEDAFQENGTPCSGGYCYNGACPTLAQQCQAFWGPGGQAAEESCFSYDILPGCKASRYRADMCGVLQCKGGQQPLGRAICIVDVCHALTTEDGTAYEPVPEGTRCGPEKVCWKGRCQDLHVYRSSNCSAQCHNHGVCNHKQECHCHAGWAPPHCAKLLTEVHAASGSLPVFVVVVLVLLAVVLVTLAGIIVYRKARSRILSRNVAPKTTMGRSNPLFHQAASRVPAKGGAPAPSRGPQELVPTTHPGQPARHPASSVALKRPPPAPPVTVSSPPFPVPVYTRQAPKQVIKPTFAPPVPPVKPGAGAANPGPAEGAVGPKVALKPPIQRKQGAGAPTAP
Put plainly: high-throughput flow cytometry, HEK293 cells with mutant ADAM8, high stringency; range in parentheses; closed box. How it is done:
as §1, §2

B1: ADP2 Fab (Fab, V domains shown)
VH: EVKLVESGGGLVQPGGSLSLSCAASGFSFPDYYMSWVRQPPGKALEWLGFIRDSANGYTTEYIASVKGRFTFSRDNSQSILYLQMNALRAEDSATYYCARYSRYYGMDYWGQGTSVTVSS
VL: SIVMTQTPKILLVSAGDRVTITCKASQTVNYDVAWYQQKPGQSPKPVIYFASNRYTGVPDRFTGSGFGTDFTFTISTVQAEDLAVYFCQQDYSAPWTFGGGTKLEIK
Regarding B1, the figures for the “Binding Reactivity (% WT)” value in test [1] and in test [2] were 26.2 % WT and 17.6 % WT, respectively.
